Test results reported in PMC9944328 (Nature Communications, 2023).

Assays:
[1] = target: human full-length SSTR3 wild-type (human) (UniProt P32745)
[2] = target: SSTR2 T194^45.51H (human) (UniProt P30874)
[3] = target: SSTR3 H192^45.51T (human) (UniProt P32745)
[4] = target: human full-length SSTR2 wild-type with SmBiT at the C-terminus (human) (UniProt P30874)
SSTR3 N101^2.64V (human) = SSTR3 N101^2.64V (human) (UniProt P32745)
SSTR2 V103^2.64N (human) = SSTR2 V103^2.64N (human) (UniProt P30874)
Chain of SSTR2 V103^2.64N (human) (P30874 whole entry V103N): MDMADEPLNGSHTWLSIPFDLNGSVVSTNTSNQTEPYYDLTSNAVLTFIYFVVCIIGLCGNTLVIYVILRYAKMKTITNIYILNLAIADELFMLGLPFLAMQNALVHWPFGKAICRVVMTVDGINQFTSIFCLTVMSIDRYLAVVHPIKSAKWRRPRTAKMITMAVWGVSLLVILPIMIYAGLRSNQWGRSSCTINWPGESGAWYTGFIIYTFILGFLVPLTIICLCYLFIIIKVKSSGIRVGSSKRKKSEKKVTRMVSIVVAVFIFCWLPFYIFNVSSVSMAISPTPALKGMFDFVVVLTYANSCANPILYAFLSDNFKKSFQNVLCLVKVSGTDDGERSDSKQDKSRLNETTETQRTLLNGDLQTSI

SSTR2 S279^6.58A (human) = SSTR2 S279^6.58A (human) (UniProt P30874)
Chain of SSTR2 S279^6.58A (human) (P30874 whole entry S279A): as the sequence (P30874 whole entry V103N) above, with N103V, S279A counted along it

SSTR2 I284^ECL3A (human) = SSTR2 I284^ECL3A (human) (UniProt P30874)
Chain of SSTR2 I284^ECL3A (human) (P30874 whole entry I284A): as the sequence (P30874 whole entry V103N) above, with N103V, I284A counted along it

SSTR2 P286^ECL3A (human) = SSTR2 P286^ECL3A (human) (UniProt P30874)
Chain of SSTR2 P286^ECL3A (human) (P30874 whole entry P286A): as the sequence (P30874 whole entry V103N) above, with N103V, P286A counted along it

SSTR2 Y302^7.43A (human) = SSTR2 Y302^7.43A (human) (UniProt P30874)
Chain of SSTR2 Y302^7.43A (human) (P30874 whole entry Y302A): as the sequence (P30874 whole entry V103N) above, with N103V, Y302A counted along it

[5] = target: SSTR2 T194^45.51A (human) (UniProt P30874)
Chain of SSTR2 T194^45.51A (human) (P30874 whole entry T194A): as the sequence (P30874 whole entry V103N) above, with N103V, T194A counted along it

SSTR2 F294^7.35A (human) = SSTR2 F294^7.35A (human) (UniProt P30874)
Chain of SSTR2 F294^7.35A (human) (P30874 whole entry F294A): as the sequence (P30874 whole entry V103N) above, with N103V, F294A counted along it

[6] = target: SSTR2 I195^45.52A (human) (UniProt P30874)
Chain of SSTR2 I195^45.52A (human) (P30874 whole entry I195A): as the sequence (P30874 whole entry V103N) above, with N103V, I195A counted along it

SSTR2 F208^5.38A (human) = SSTR2 F208^5.38A (human) (UniProt P30874)
Chain of SSTR2 F208^5.38A (human) (P30874 whole entry F208A): as the sequence (P30874 whole entry V103N) above, with N103V, F208A counted along it

SSTR2 W188^ECL3A (human) = SSTR2 W188^ECL3A (human) (UniProt P30874)
Chain of SSTR2 W188^ECL3A (human) (P30874 whole entry W188A): as the sequence (P30874 whole entry V103N) above, with N103V, W188A counted along it

[7] = target: human full-length SSTR2 wild-type with SmBiT at the C-terminus (human) (UniProt P30874); remark: listed apart in the source
SSTR2 K291^7.32A (human) = SSTR2 K291^7.32A (human) (UniProt P30874)
Chain of SSTR2 K291^7.32A (human) (P30874 whole entry K291A): as the sequence (P30874 whole entry V103N) above, with N103V, K291A counted along it

SSTR2 F272^6.51A (human) = SSTR2 F272^6.51A (human) (UniProt P30874)
Chain of SSTR2 F272^6.51A (human) (P30874 whole entry F272A): as the sequence (P30874 whole entry V103N) above, with N103V, F272A counted along it

SSTR2 S285^ECL3A (human) = SSTR2 S285^ECL3A (human) (UniProt P30874)
Chain of SSTR2 S285^ECL3A (human) (P30874 whole entry S285A): as the sequence (P30874 whole entry V103N) above, with N103V, S285A counted along it

SSTR2 Y205^5.35A (human) = SSTR2 Y205^5.35A (human) (UniProt P30874)
Chain of SSTR2 Y205^5.35A (human) (P30874 whole entry Y205A): as the sequence (P30874 whole entry V103N) above, with N103V, Y205A counted along it

SSTR2 L99^2.60A (human) = SSTR2 L99^2.60A (human) (UniProt P30874)
Chain of SSTR2 L99^2.60A (human) (P30874 whole entry L99A): as the sequence (P30874 whole entry V103N) above, with L99A, N103V counted along it

SSTR2 F127^3.37A (human) = SSTR2 F127^3.37A (human) (UniProt P30874)
Chain of SSTR2 F127^3.37A (human) (P30874 whole entry F127A): as the sequence (P30874 whole entry V103N) above, with N103V, F127A counted along it

SSTR2 Q102^2.63A (human) = SSTR2 Q102^2.63A (human) (UniProt P30874)
Chain of SSTR2 Q102^2.63A (human) (P30874 whole entry Q102A): as the sequence (P30874 whole entry V103N) above, with Q102A, N103V counted along it

SSTR2 T287^ECL3A (human) = SSTR2 T287^ECL3A (human) (UniProt P30874)
Chain of SSTR2 T287^ECL3A (human) (P30874 whole entry T287A): as the sequence (P30874 whole entry V103N) above, with N103V, T287A counted along it

SSTR2 N276^6.55A (human) = SSTR2 N276^6.55A (human) (UniProt P30874)
Chain of SSTR2 N276^6.55A (human) (P30874 whole entry N276A): as the sequence (P30874 whole entry V103N) above, with N103V, N276A counted along it

[8] = target: human full-length SSTR2 wild-type (human) (UniProt P30874)
Chain of human full-length SSTR2 wild-type (human) (P30874 whole entry): as the sequence (P30874 whole entry V103N) above, with N103V counted along it

[9] = target: human full-length SSTR2 T194^45.51H (human) (UniProt P30874)
Chain of human full-length SSTR2 T194^45.51H (human) (P30874 whole entry T194H): as the sequence (P30874 whole entry V103N) above, with N103V, T194H counted along it

[10] = target: human full-length SSTR3 wild-type (human) (UniProt P32745); remark: listed apart in the source
[11] = target: human full-length SSTR2 V103^2.64N (human) (UniProt P30874)
Chain of human full-length SSTR2 V103^2.64N (human) (P30874 whole entry V103N): as the sequence (P30874 whole entry V103N) above

[12] = target: human full-length SSTR3 N101^2.64V (human) (UniProt P32745)
Chain of human full-length SSTR3 N101^2.64V (human) (P32745 whole entry): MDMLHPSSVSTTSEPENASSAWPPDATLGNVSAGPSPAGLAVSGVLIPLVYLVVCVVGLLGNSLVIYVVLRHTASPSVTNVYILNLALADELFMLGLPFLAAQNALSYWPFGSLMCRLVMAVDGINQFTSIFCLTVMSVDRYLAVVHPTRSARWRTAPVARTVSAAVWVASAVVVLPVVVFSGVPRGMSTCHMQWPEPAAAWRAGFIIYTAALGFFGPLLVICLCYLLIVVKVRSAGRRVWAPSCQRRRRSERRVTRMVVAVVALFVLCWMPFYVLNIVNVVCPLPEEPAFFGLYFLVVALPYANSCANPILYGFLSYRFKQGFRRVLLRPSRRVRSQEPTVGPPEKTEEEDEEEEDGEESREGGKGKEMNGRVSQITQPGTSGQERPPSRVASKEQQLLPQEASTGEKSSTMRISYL

[13] = target: human full-length SSTR3 H192^45.51T (human) (UniProt P32745)
Chain of human full-length SSTR3 H192^45.51T (human) (P32745 whole entry H192T): as the sequence (P32745 whole entry) above, with H192T counted along it

Chain of human full-length SSTR3 wild-type (human) (P32745 whole entry): as the sequence (P32745 whole entry) above
Chain of human full-length SSTR2 wild-type with SmBiT at the C-terminus (human) (P30874 whole entry): as the sequence (P30874 whole entry V103N) above, with N103V counted along it
Chain of SSTR3 N101^2.64V (human) (P32745 whole entry): as the sequence (P32745 whole entry) above
Chain of SSTR3 H192^45.51T (human) (P32745 whole entry H192T): as the sequence (P32745 whole entry) above, with H192T counted along it
Chain of SSTR2 T194^45.51H (human) (P30874 whole entry T194H): as the sequence (P30874 whole entry V103N) above, with N103V, T194H counted along it

## octreotide (peptide)
[1]
  EC50 of octreotide-induced cAMP inhibition (GloSensor, HEK293 cells expressing the receptor; Supplementary Table 5): 30.1 nM
[2]
  EC50 of octreotide-induced cAMP inhibition (GloSensor, HEK293 cells expressing the receptor; Supplementary Table 5): 18.7 nM
[3]
  EC50 of octreotide-induced cAMP inhibition (GloSensor, HEK293 cells expressing the receptor; Supplementary Table 5): 21 nM
[4]
  EC50 of octreotide-induced cAMP inhibition (GloSensor, HEK293 cells expressing the receptor; Supplementary Table 5): 0.21 nM
SSTR3 N101^2.64V (human)
  EC50 of octreotide-induced cAMP inhibition (GloSensor, HEK293 cells expressing the receptor; Supplementary Table 5): 1.33 nM
SSTR2 V103^2.64N (human)
  EC50 of octreotide-induced cAMP inhibition (GloSensor, HEK293 cells expressing the receptor; Supplementary Table 5): 0.23 nM
SSTR2 S279^6.58A (human)
  EC50 of octreotide-induced cAMP inhibition (Gi signaling, GloSensor, HEK293 cells expressing the receptor): 1.17 nM
SSTR2 I284^ECL3A (human)
  EC50 of octreotide-induced cAMP inhibition (Gi signaling, GloSensor, HEK293 cells expressing the receptor): 1.91 nM
SSTR2 P286^ECL3A (human)
  EC50 of octreotide-induced cAMP inhibition (Gi signaling, GloSensor, HEK293 cells expressing the receptor): 0.62 nM
SSTR2 Y302^7.43A (human)
  EC50 of octreotide-induced cAMP inhibition (Gi signaling, GloSensor, HEK293 cells expressing the receptor): 79 nM
[5]
  EC50 of octreotide-induced cAMP inhibition (Gi signaling, GloSensor, HEK293 cells expressing the receptor): 48.5 nM
SSTR2 F294^7.35A (human)
  EC50 of octreotide-induced cAMP inhibition (Gi signaling, GloSensor, HEK293 cells expressing the receptor): 190 nM
[6]
  EC50 of octreotide-induced cAMP inhibition (Gi signaling, GloSensor, HEK293 cells expressing the receptor): 6.58 nM
SSTR2 F208^5.38A (human)
  EC50 of octreotide-induced cAMP inhibition (Gi signaling, GloSensor, HEK293 cells expressing the receptor): 6.42 nM
SSTR2 W188^ECL3A (human)
  EC50 of octreotide-induced cAMP inhibition (Gi signaling, GloSensor, HEK293 cells expressing the receptor): 0.32 nM
[7]
  EC50 of octreotide-induced cAMP inhibition (Gi signaling, GloSensor, HEK293 cells expressing the receptor): 0.46 nM
SSTR2 K291^7.32A (human)
  EC50 of octreotide-induced cAMP inhibition (Gi signaling, GloSensor, HEK293 cells expressing the receptor): 5.46 nM
SSTR2 F272^6.51A (human)
  EC50 of octreotide-induced cAMP inhibition (Gi signaling, GloSensor, HEK293 cells expressing the receptor): 322 nM
SSTR2 S285^ECL3A (human)
  EC50 of octreotide-induced cAMP inhibition (Gi signaling, GloSensor, HEK293 cells expressing the receptor): 0.69 nM
SSTR2 Y205^5.35A (human)
  EC50 of octreotide-induced cAMP inhibition (Gi signaling, GloSensor, HEK293 cells expressing the receptor): 0.92 nM
SSTR2 L99^2.60A (human)
  EC50 of octreotide-induced cAMP inhibition (Gi signaling, GloSensor, HEK293 cells expressing the receptor): 1.25 nM
SSTR2 F127^3.37A (human)
  EC50 of octreotide-induced cAMP inhibition (Gi signaling, GloSensor, HEK293 cells expressing the receptor): 1.93 nM
SSTR2 Q102^2.63A (human)
  EC50 of octreotide-induced cAMP inhibition (Gi signaling, GloSensor, HEK293 cells expressing the receptor): 66.8 nM
SSTR2 T287^ECL3A (human)
  EC50 of octreotide-induced cAMP inhibition (Gi signaling, GloSensor, HEK293 cells expressing the receptor): 0.6 nM
SSTR2 N276^6.55A (human)
  EC50 of octreotide-induced cAMP inhibition (Gi signaling, GloSensor, HEK293 cells expressing the receptor): 35.1 nM
[8]
  octreotide induced cAMP inhibition (GloSensor, HEK293 cells, 1e-13 to 1e-06): EC50 of the fit WT-1: 0.208 nM
  octreotide induced cAMP inhibition (GloSensor, HEK293 cells, 1e-13 to 1e-06): EC50 of the fit WT-2: 0.208 nM
[9]
  octreotide induced cAMP inhibition (GloSensor, HEK293 cells, 1e-13 to 1e-06): EC50 of the fit T194H-1: 28.2 nM
  octreotide induced cAMP inhibition (GloSensor, HEK293 cells, 1e-13 to 1e-06): EC50 of the fit T194H-2: 28.2 nM
[10]
  octreotide induced cAMP inhibition (GloSensor, HEK293 cells, 1e-13 to 1e-06): EC50 of the fit WT-1 (SSTR3): 54.7 nM
  octreotide induced cAMP inhibition (GloSensor, HEK293 cells, 1e-13 to 1e-06): EC50 of the fit WT-2 (SSTR3): 30.1 nM
[11]
  octreotide induced cAMP inhibition (GloSensor, HEK293 cells, 1e-13 to 1e-06): EC50 of the fit V103N-1: 0.227 nM
  octreotide induced cAMP inhibition (GloSensor, HEK293 cells, 1e-13 to 1e-06): EC50 of the fit V103N-2: 0.227 nM
[12]
  octreotide induced cAMP inhibition (GloSensor, HEK293 cells, 1e-13 to 1e-06): EC50 of the fit N101V-1: 2.5 nM
  octreotide induced cAMP inhibition (GloSensor, HEK293 cells, 1e-13 to 1e-06): EC50 of the fit N101V-2: 1.33 nM
[13]
  octreotide induced cAMP inhibition (GloSensor, HEK293 cells, 1e-13 to 1e-06): EC50 of the fit H192T-1: 82.9 nM
  octreotide induced cAMP inhibition (GloSensor, HEK293 cells, 1e-13 to 1e-06): EC50 of the fit H192T-2: 21 nM
